Data taken from the supplement of paper PMC11246515.
± gives the standard deviation of the averaged measurements.

Experiment: total protein half-life in vivo (active degradation + dilution); higher = more stable protein
[1] = E. coli NCM3722 delta-clpP delta-lon delta-hslV, growth: N-lim chemostat, doubling time 6 h
[2] = E. coli NCM3722 delta-lon, growth: N-lim chemostat, doubling time 6 h
[3] = E. coli NCM3722 delta-smpB, growth: N-lim chemostat, doubling time 6 h
[4] = wild type E. coli NCM3722, growth: N-lim chemostat, doubling time 12 h
[5] = E. coli NCM3722 delta-clpP, growth: N-lim chemostat, doubling time 6 h
[6] = E. coli NCM3722 delta-hslV, growth: N-lim chemostat, doubling time 6 h
[7] = wild type E. coli NCM3722, growth: C-lim chemostat, doubling time 3 h
[8] = wild type E. coli NCM3722, growth: C-lim chemostat, doubling time 12 h
[9] = wild type E. coli NCM3722, growth: N-lim chemostat, doubling time 6 h
[10] = wild type E. coli NCM3722, growth: P-lim chemostat, doubling time 6 h
[11] = wild type E. coli NCM3722, growth: P-lim chemostat, doubling time 12 h

Sequence: MKRLLILTALLPFVGFAQPINTLNNPNQPGYQIPSQQRMQTQMQTQQIQQKGMLNQQLKTQTQLQQQHLENQINNNSQRVLQSQPGERNPARQQMLPNTNGGMLNSNRNPDSSLNQQHMLPERRNGDMLNQPSTPQPDIPLKTIGP [P0ADX7]
- total protein half-life in vivo [1]: 5.56 h
- total protein half-life in vivo [2]: 4.65 h
- total protein half-life in vivo [3]: 3.81 h
- total protein half-life in vivo [4]: 7.44 h

Sequence: MKRLSITVRLTLLFILLLSVAGAGIVWTLYNGLASELKWRDDTTLINRTAQIKQLLIDGVNPDTLPVYFNRMMDVSQDILIIHGDSINKIVNRTNVSDGMLNNIPASETISAAGIYRSIINDTEIDALRINIDEVSPSLTVTVAKLASARHNMLEQYKINSIIICIVAIVLCSVLSPLLIRTGLREIKKLSGVTEALNYNDSREPVEVSALPRELKPLGQALNKMHHALVKDFERLSQFADDLAHELRTPINALLGQNQVTLSQTRSIAEYQKTIAGNIEELENISRLTENILFLARADKNNVLVKLDSLSLNKEVENLLDYLEYLSDEKEICFKVECNQQIFADKILLQRMLSNLIVNAIRYSPEKSRIHITSFLDTNSYLNIDIASPGTKINEPEKLFRRFWRGDNSRHSVGQGLGLSLVKAIAELHGGSATYHYLNKHNVFRITLPQRN
- total protein half-life in vivo [1]: 5.59 ± 0.15 h
- total protein half-life in vivo [5]: 6.99 ± 0.076 h
- total protein half-life in vivo [6]: 6.03 ± 0.26 h
- total protein half-life in vivo [3]: 5.75 ± 0.48 h
- total protein half-life in vivo [7]: 3.13 ± 0.66 h
- total protein half-life in vivo (wild type E. coli NCM3722, growth: C-lim chemostat, doubling time 6 h): 7.13 ± 0.64 h
- total protein half-life in vivo [8]: 10.1 h
- total protein half-life in vivo [9]: 6.174 ± 0.057 h
- total protein half-life in vivo [4]: 12.98 ± 0.022 h
- total protein half-life in vivo [10]: 5.63 ± 0.89 h
- total protein half-life in vivo [11]: 13.4 ± 0.56 h

Sequence: MKRPALILICLLLQACSATTKELGNSLWDSLFGTPGVQLTDDDIQNMPYASQYMQLNGGPQLFVVLAFAEDGQQKWVTQDQATLVTQHGRLVKTLLGGDNLIEVNNLAADPLIKPAQIVDGASWTRTMGWTEYQQVRYATARSVFKWDGTDTVKVGSDETPVRVLDEEVSTDQARWHNRYWIDSEGQIRQSEQYLGADYFPVKTTLIKAAKQ
- total protein half-life in vivo [1]: 6.57 ± 0.37 h
- total protein half-life in vivo [5]: 6.43 h
- total protein half-life in vivo [2]: 6.59 ± 0.19 h
- total protein half-life in vivo [3]: 5.12 ± 0.2 h

Sequence: MKRPDYRTLQALDAVIRERGFERAAQKLCITQSAVSQRIKQLENMFGQPLLVRTVPPRPTEQGQKLLALLRQVELLEEEWLGDEQTGSTPLLLSLAVNADSLATWLLPALAPVLADSPIRLNLQVEDETRTQERLRRGEVVGAVSIQHQALPSCLVDKLGALDYLFVSSKPFAEKYFPNGVTRSALLKAPVVAFDHLDDMHQAFLQQNFDLPPGSVPCHIVNSSEAFVQLARQGTTCCMIPHLQIEKELASGELIDLTPGLFQRRMLYWHRFAPESRMMRKVTDALLDYGHKVLRQD [P0A8S1]
- total protein half-life in vivo [1]: 5.48 ± 0.31 h
- total protein half-life in vivo [5]: 5.93 ± 1.3 h
- total protein half-life in vivo [6]: 5.46 ± 0.27 h
- total protein half-life in vivo [2]: 5.78 ± 0.57 h
- total protein half-life in vivo [3]: 4.96 ± 0.39 h
- total protein half-life in vivo [7]: 3.01 ± 0.31 h
- total protein half-life in vivo [8]: 11.6 ± 0.16 h
- total protein half-life in vivo [9]: 5.84 ± 0.67 h
- total protein half-life in vivo [4]: 9.72 ± 0.46 h
- total protein half-life in vivo [10]: 6.03 ± 0.091 h
- total protein half-life in vivo [11]: 13.4 ± 0.89 h
